B1: WH-biotin (peptide WH with GGGK-biotin at the carboxyl terminal) [modified: biotin on the C-terminal lysine (GGGK-biotin); biotin on the C-terminal lysine (GGGK-biotin)] / mouse Clec9a expressed on HEK-293T cells (pIRES2-EGFP-mClec9a) … (parent complex)
chain 1: WPRFHSSVFHTHGGGK
chain 2: MHAEEIYTSLQWDIPTSEASQKCQSPSKCSGAWCVVTMISCVVCMGLLATSIFLGIKFFQVSSLVLEQQERLIQQDTALVNLTQWQRKYTLEYCQALLQRSLHSGTDASTGPVLLTSPQMVPQTLDSKETGSDCSPCPHNWIQNGKSCYYVFERWEMWNISKKSCLKEGASLFQIDSKEEMEFISSIGKLKGGNKYWVGVFQDGISGSWFWEDGSSPLSDLLPAERQRSAGQICGYLKDSTLISDKCDSWKYFICEKKAFGSCI

Variants of B1 are the subject of this test. Put plainly: flow cytometry on cells; parent: 49.6.
As to chain 2 D248A, the response is 11.3 % of cells in upper-right quadrant (SA+ EGFP+).
For the variant chain 2 W155A, the response is 52.5 % of cells in upper-right quadrant (SA+ EGFP+).
For chain 2 M157A, the response is 74.2 % of cells in upper-right quadrant (SA+ EGFP+).
Consider chain 2 Y252A, for which the response is 45.4 % of cells in upper-right quadrant (SA+ EGFP+).
For chain 2 I160A, the response was 50.6 % of cells in upper-right quadrant (SA+ EGFP+).
On to chain 2 W250A, for which the response is 7.85 % of cells in upper-right quadrant (SA+ EGFP+).
Then chain 2 R154A, with 69.6 % of cells in upper-right quadrant (SA+ EGFP+).

These data come from paper PMC5130018 (2016).
